Key:
ZpaCPR = test system: T1, ZpaCPR; test: NADPH oxidation, absorbance […] nm, Michaelis-Menten fit; format: biochemical, Zygosaccharomyces parabailii; settings: 0.15 mM NADPH, 200 mM PBS pH 5.5, 45 °C
T1 construct: gene CPR; pET28a, codon-optimized synthetic gene, E. coli BL21(DE3), Ni-NTA purified

CduCPR = target: T2, CduCPR (Candida dubliniensis, UniProt B9WJQ5); test: whole-cell reduction to D-pantolactone; format: cell-based; settings: E. coli cells co-expressing EsGDH
T2 construct: gene CPR-C2; pACYCDuet-1, co-expressed with EsGDH in E. coli BL21(DE3) cells
T2 sequence (B9WJQ5 1-309): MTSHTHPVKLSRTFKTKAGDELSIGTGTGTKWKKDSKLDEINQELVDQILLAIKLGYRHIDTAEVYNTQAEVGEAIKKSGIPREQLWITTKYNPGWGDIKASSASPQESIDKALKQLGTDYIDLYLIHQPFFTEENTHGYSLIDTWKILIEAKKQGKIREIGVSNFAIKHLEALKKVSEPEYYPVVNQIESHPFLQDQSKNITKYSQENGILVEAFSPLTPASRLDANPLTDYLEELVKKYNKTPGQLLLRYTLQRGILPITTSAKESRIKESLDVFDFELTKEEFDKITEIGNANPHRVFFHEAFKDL

NasLPLDH = target: T3, NasLPLDH (Nocardia asteroides, UniProt U5EKS1); test: substrate specificity, dehydrogenation by recombinant enzyme; format: cell-based; settings: recombinant E. coli BL21(DE3); FMN-dependent
T3 construct: gene NCAST_32_01610; pET28a, codon-optimized synthetic gene, E. coli BL21(DE3)
T3 sequence (U5EKS1 1-404): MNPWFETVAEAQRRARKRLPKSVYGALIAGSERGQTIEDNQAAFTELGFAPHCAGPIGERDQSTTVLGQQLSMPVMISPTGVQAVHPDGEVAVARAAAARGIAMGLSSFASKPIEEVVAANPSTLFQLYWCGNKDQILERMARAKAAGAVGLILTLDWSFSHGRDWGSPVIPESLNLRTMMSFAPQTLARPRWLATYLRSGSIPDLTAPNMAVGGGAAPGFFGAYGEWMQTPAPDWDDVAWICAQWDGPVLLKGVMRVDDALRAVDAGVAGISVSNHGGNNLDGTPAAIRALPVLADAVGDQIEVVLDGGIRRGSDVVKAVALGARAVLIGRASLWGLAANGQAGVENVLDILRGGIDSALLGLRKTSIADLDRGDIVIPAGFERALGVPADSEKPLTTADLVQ

purified protein = substrate: CC1(C)COC(=O)[C@H]1O; test: purified protein; format: biochemical, Amycolatopsis methanolica; settings: 0.15 mM FMN, 200 mM PBS pH 8.0, 30 °C

CC1(C)COC(=O)C1=O [ketopantolactone] was tested, and the Km (ZpaCPR) was 3.65 ± 0.58 mM and the “whole-cell reduction to D-pantolactone” value (CduCPR) was “used to catalyze the reduction of ketopantolactone, affording the single D-enantiomer”.

In the case of CC1(C)COC(=O)[C@H]1O [L-pantolactone], the “substrate specificity, dehydrogenation by recombinant enzyme” value (NasLPLDH) is reported as “all five LPLDHs showed the capacity to catalyze the dehydrogenation of L-pantolactone but not D-pantolactone”.

B1: AmeLPLDH (Amycolatopsis methanolica 239) (protein)
chain: MSNGWFETVAEAQRRARKRLPKSVYGALVAGSERGITVDDNIAAFAELGFAPHVAGLSDKRELGTTVMGQPISLPVVISPTGVQAVHPDGEVAVARAAAARGTAMGLSSFASKSIEEVAAANPQTFFQMYWVGSRDVLVQRMERARAAGAVGLIMTLDWSFSTGRDWGSPVIPEKLDLKAMARFAPEGITRPKWLWDFAKTRKLPDLTTPNLTPPGGTAPTFFGAYGEWMQTPLPTWEDVAWLREQWGGPFMLKGVMRVDDAKRAVDAGVTAISVSNHGGNNLDGTPAPIRALPAIADAVGGDVEVLLDGGIRRGSDVVKAIALGAKAVLIGRAYLWGLAANGQAGVENVLDILRGGIDSAVLGLGKTSIHELTRDDVVIPPGFERALGVPKS
notes: pET28a, codon-optimized synthetic gene, E. coli BL21(DE3), Ni-NTA purified, Brij 35 solubilised
B1 gave a Km (purified protein) of 0.57 ± 0.04 mM, a Vmax (purified protein) of 52.5 µmol/min/mg and a kcat (purified protein) of 36.41 ± 0.29 s⁻¹. For the same molecule, the kcat/Km (purified protein) was 63850 ± 510 M⁻¹ s⁻¹.
